Data: patent publication US20240301076A1 (CEPHALON, published 2024)

T1: human CXCR1 (human, UniProt P25024 1-350)
T1 sequence: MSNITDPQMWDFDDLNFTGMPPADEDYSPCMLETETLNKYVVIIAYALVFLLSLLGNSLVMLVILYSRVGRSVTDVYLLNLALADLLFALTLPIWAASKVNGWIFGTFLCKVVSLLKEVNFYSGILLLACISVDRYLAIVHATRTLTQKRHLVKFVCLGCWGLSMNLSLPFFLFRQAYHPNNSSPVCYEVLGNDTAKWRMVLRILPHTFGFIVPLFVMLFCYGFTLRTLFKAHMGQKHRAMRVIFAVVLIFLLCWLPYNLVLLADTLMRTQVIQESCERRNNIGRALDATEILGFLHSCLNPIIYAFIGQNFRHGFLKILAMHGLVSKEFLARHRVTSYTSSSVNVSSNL

T2: human CXCR2 (human, UniProt P25025 1-360)
T2 construct: also called CXC chemokine receptor 2; hCXCR2
T2 sequence: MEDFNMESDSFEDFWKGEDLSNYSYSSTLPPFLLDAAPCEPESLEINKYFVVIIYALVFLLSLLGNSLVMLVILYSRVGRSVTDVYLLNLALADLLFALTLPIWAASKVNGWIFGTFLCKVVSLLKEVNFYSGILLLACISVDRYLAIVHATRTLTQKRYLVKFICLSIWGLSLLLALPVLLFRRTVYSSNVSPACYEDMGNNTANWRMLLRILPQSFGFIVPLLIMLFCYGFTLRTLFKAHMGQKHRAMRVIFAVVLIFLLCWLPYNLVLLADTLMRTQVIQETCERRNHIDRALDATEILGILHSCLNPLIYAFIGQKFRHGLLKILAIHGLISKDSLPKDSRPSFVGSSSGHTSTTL


What was measured:
human CXCR1 = molecular target: T1, human CXCR1; experiment: flow cytometry, transfected Expi293F cells
Procedure: (§1) Harvested cells were resuspended in FACS buffer (1×PBS+0.5% (w/v) bovine serum albumin (BSA)+2 mM EDTA pH 7.2). Approximately 2×10⁵ cells were added per well in a 96-well round-bottomed plate. Cells were pelleted by centrifugation at 400 g for 5 mins at 4° C. and supernatants discarded. 25 μL of each test antibody or control antibody was added to the cells and incubated for 30 minutes at 4° C. Cells were washed twice in 100 μL FACS buffer followed by centrifugation at 400 g for 5 mins at 4° C.
(§2) For detection, 50 μL of secondary antibody (Table 2) was added to relevant samples. Commercially available antibodies that bound to transfected CXCR family members were used as positive controls to ensure that the cells were expressing the receptors. Cells were washed twice in 200 μL of FACS buffer followed by centrifugation at 400 g for 5 mins at 4° C. Before sample acquisition, cells were resuspended in 100 μL of FACS buffer. Samples were acquired using the high throughput sampler on a FACSCanto™ II cytometer (Beckton-Dickinson).
(§3) These antibody variable regions were then generated by gene synthesis and subcloned into mammalian expression vectors as described in General Methods. Antibodies were produced by co-expression of heavy and light chain plasmids in Expi293F™ cells and purified by protein A column chromatography as described in General Methods. Where several heavy and/or light chains were identified from the same hybridoma cells, each heavy chain was paired with each light chain and the resulting antibodies given suffix a, b, c, etc. Purified antibodies were desalted into Sorensen's PBS pH 5.8 and tested by flow cytometry for binding to Expi293F™ cells transfected with human CXCR2 or human CXCR1 and mock transfected Expi293F™ cells.

human CXCR2 = molecular target: T2, human CXCR2; experiment: flow cytometry, transfected Expi293F cells
Procedure: as §1, §2, §3

Row | Binder | binding result (human CXCR1) | binding result (human CXCR2)
1 | BKO-3F4 (antibody, human IgG4 S228P, lambda, V domains shown, recombinant human IgG4 S228P, lambda) VH: EVQLLESGGGLVQPGGSLRLSCAASGLTFSSYAMSWVRQAPGKGLEWVSAISGSGGKIYYADSVKGRFTISRDNSKNTLYLQMNSLRAEDTAVYYCAIQVGYWGQGTLVTVSS VL: QSALTQPPSASGSPGQSVTMSCTGTSSDVGGYNYVTWYQQHPGKAPKLMIYEVSKRPSGVPARFSGSKSGNTASLTVSGLQAEDEADYYCSSYAGPNNFGVFGGGTKLTVLG | no binding | binds
2 | BKO-9A8 (antibody, human IgG4 S228P, lambda, V domains shown, recombinant human IgG4 S228P, lambda) VH: EVQLLESGGGLVQTGGSLRLSCAASGFTFSSNTMSWVRQAPGKGLEWVSAISGSGGRTYYVDSVKGRFTISRDNSKNTLYLQMHSLRAEDTAVYYCAIQLGSWGQGILVTVSS VL: QSALTQPPSASGSPGQSVTISCTGTSSDVGAYNYVSWYQQHPGKAPKLMIYEVTKRPSGVPDRFSGSKSGNTASLTVSGLQAEDEADYYCSSYAGNNNFGVFGGGTKLTVLG | no binding | binds
3 | BKO-7H8_b (antibody, human IgG4 S228P, lambda, V domains shown, recombinant human IgG4 S228P, lambda) VH: EVQLLESGGGLVQPGGSLRLSCAASGYTFTSSTMSWVRQAPGKGLEWVTAISGRGGRTYYADSVKGRFTISRDNSKNTLYLQMNSLRAEDTAVYYCAIQLGNWGQGILVTVSS VL: QSALTQPPSASGSPGQSVTISCTGTSSDIGGYNYVSWYQQHPGKAPKLVIYEVNMRPSGVPARFSGSKSGNTASLTVSGLQAEDEADYYCSSYAGNDNFGVFGGGTKLSVLG | no binding | binds
4 | BKO-5G11 (antibody, human IgG4 S228P, lambda, V domains shown, recombinant human IgG4 S228P, lambda) VH: EVQLLESGGGLVQPGGSLRLSCAVSGFTFSNYAMTWVRQAPGKGLEWVSAISGRGSRTYYADSVKGRFTISRDTSKNTLYLQMNSLRAEDTAVYYCAKMDYWGQGTLVTVSS VL: QSALTQPPSASGSPGQSVTISCTGTSSDVGGYNYVSWYQQHPGKAPKLMIFEVSKRPSGVPDRFSGSKSGNTASLTVSGLQAEDEADYYCSSYAGSNNFGVFGGGTKLTVLG | no binding | binds
5 | BKO-7G10_a (antibody, human IgG4 S228P, lambda, V domains shown, recombinant human IgG4 S228P, lambda) VH: EVQLLESGGGLVQPGGSLRLSCAVSGFTFSNYAMTWVRQAPGKGLEWVSAISGRGSRTYYADSVKGRFTISRDTSKNTLYLQMNSLRAEDTAVYYCAKMDYWGQGTLVTVSS VL: QSALTQPPSASGSPGQSVTISCTGTSSDVGGYNYVSWYQQHPGKAPKLMIFEVSKRPSGVPDRFSGSKSGNTASLTVSGLQAEDEADYYCSSYAGSNNFGVFGGGTKLTVLG | no binding | binds
6 | BKO-8B6 (antibody, human IgG4 S228P, lambda, V domains shown, recombinant human IgG4 S228P, lambda) VH: EVQLLESGGGLVQPGGSLRLSCAASGFTFSSNAMSWVRQAPGKGLEWVSAISNSGRSTYYADSVKGRFTISRDSSKNTLYLLMNSLRAEDSAVYYCAIKLGYWGQGSLVTVSS VL: QSALTQPPSASGSPGQSVTISCTGTSSDVGGYNYVSWYQQHPGKAPKLMMYEVSKRPSGVPDRFSGSKSGNTASLTVSGLQAEDEADYYCSSYAGSDNFGVFGGGTRLTVLG | no binding | binds
7 | BKO-8H8_b (antibody, human IgG4 S228P, lambda, V domains shown, recombinant human IgG4 S228P, lambda) VH: EVQLLESGGGLVQPGGSLRLSCAASGLTVSSYAMSWVRQAPGKGLEWVSAISGSGGKIYYADSVKGRFTISRDNSKNTLYLQMNSLSAEDTAVYYCAIQVGYWGQGTLVTVSS VL: QSALTQPPSASGSPGQSVTMSCTGTSSDVGGYNYVTWYQQHPGKAPKLVIYEVSKRPSGVPVRFSGSKSGNTASLTVSGLQAEDEADYYCSSYAGPNNFGIFGGGTKLTVLG | no binding | binds
8 | BKO-3D6 (antibody, human IgG4 S228P, lambda, V domains shown, recombinant human IgG4 S228P, lambda) VH: EVQLVESGGDLVQPGRSLRLSCAASGFTFDDYAMHWVRQAPGKGLKWVSGITWNSGNKRYADSVKGRFTISRDNAKNSLYLQMNSLRAEDTALYYCAKDMKGSGTYFPAFDYWGQGTLVTVSS VL: not shown | no binding | binds
9 | BKO-10G10 (antibody, human IgG4 S228P, lambda, V domains shown, recombinant human IgG4 S228P, lambda) VH: QLQLQESGPGLVKPSETLSLTCTVSGGSIRRSSYYWGWIRQPPGKGLEWIGSFYNSGNTYYKPSLKSRVAISVDTPKNQFSLKLSSVTAADTAVYYCARGYSSGGFDPWGQGTLVTVSS VL: QSALTQPASVSGSPGQSITISCTGTSSDVGGYNYVSWCQQHPGKAPKIMIFDVSNRPSGVSNRFSGSKSGNTASLTISGLQAEDEADYYCSSYTSSSTWVFGGGTRLTVLG | no binding | binds
10 | BKO-4F10 (antibody, human IgG4 S228P, lambda, recombinant human IgG4 S228P, lambda) heavy: not shown light: QSALTQPASVSGSPGQSITISCTGTSSDVGGYNYVSWYQQHPGKAPKLMIYDVSNRPSGISNRFSGSKSGNTASLTISGLQAEDEADYYCSSYTSSSTWVFGGGTKLTVLGQPKAAPSVTLFPPSSEELQANKATLVCLISDFYPGAVTVAWKADSSPVKAGVETTTPSKQSNNKYAASSYLSLTPEQWKSHRSYSCQVTHEGSTVEKTVAPTECS | no binding | binds

Continued, values first:

Row | binding result (human CXCR1) | binding result (human CXCR2) | Binder
11 | no binding | binds | BKO-5G6_c (antibody, human IgG4 S228P, lambda, recombinant human IgG4 S228P, lambda) heavy: not shown light: QSALTQPASVSGSPGQSITISCTGTSSDVGGYNYVSWYQQHPGKAPKLMIYDVSNRPSGISNRFSGSKSGNTASLTISGLQAEDEADYYCSSYTSSSTWVFGGGTTLTVLGQPKAAPSVTLFPPSSEELQANKATLVCLISDFYPGAVTVAWKADSSPVKAGVETTTPSKQSNNKYAASSYLSLTPEQWKSHRSYSCQVTHEGSTVEKTVAPTECS
12 | no binding | binds | BKO-6A1_b (antibody, human IgG4 S228P, lambda, V domains shown, recombinant human IgG4 S228P, lambda) VH: QVQLKQWGAGLLKPSETLSLTCAVYGGSFSGYYWTWIRQPPGKGLEWIGEINHSGSTNYNPSLKSRVTMSVDTSKNQFSLKLRSVTAADTAVYYCARGEVRGLITLYWYFDVWGRGSLVTVSS VL: SSELTQDPAVSVALGQTVRITCQGDSLRSYYASWYQQKPGQAPVLVIYGKNNRPSGIPDRFSGSSSGNTASLTITGAQAEDEADYYCNSRDSSGNHVVFGGGTKLTVLG
13 | no binding | binds | BKO_7C11 (antibody, human IgG4 S228P, lambda, V domains shown, recombinant human IgG4 S228P, lambda) VH: QVQLQQWGAGLLKPSETLSLTCAVYGGSFSGYYWSWIRQPPGKGLEWIGEINHSRNTNYNPSLKSRVTISVDTSKNQFSLKLSSVTAADTAVYYCARGEVRGVFTLYWYFDVWGRGTLVTVSS VL: SSELTQGPAVSVALGQTVRITCQGNSLRFYYASWYQQRPGQAPILVIYDKNNRPSGIPDRFSGSSSGNTASLTITGAQAEDEADYYCNSRDSSGYYMIFGGGTKLTVLG
14 | no binding | binds | BKO-8C4 (antibody, human IgG4 S228P, lambda, V domains shown, recombinant human IgG4 S228P, lambda) VH: QLQLQESGPGLVKPSETLSLTCTVSGGSIRTSSYYWGWIRQPPGKGLEYIGSIYYSGTTYYNPSLKSRVTMSVDTSKNQFSLKLSSVTAADTAVYYCARHGRVREVPPFDYWGQGTLVTVSS VL: SSELTQDPAVSVALGQTVRITCQGDSLRYYYASWYQQKPGQAPVLVIYDENSRPSGIPDRFSGSSSGNTASLRITGTQAEDEADYYCNSRDTSGNHWAFGGGTKLTVLG
15 | no binding | binds | BKO-5E8 (antibody, human IgG4 S228P, lambda, V domains shown, recombinant human IgG4 S228P, lambda) VH: EVQLLESGGGLVQPGGSLRLSCAASGFTFSSYAMSWVRQAPGRGLEWVSAIRGSGAGTYYADSMKGRFTISRDNSKDTLYLLMNSLRAEDTAVYYCSKLEAVSGTGKYFQHWGQGTLVTVSS VL: SYELTQPPSVSVSPGQTANITCSGDTLGDKFACWYQQKPGQSPVLVIYQDTKRPSGIPERFSGSKSGITATLTISGTQAMDEADFYCQAWNSRGVVFGGGTRLTVLG
